Values of other authors in article PMC7421905.

Target: Laminin 411 (Homo sapiens) (UniProt Q16363)
UniProt Q16363, sequence (Q16363 25-1823, chain 1 of 3): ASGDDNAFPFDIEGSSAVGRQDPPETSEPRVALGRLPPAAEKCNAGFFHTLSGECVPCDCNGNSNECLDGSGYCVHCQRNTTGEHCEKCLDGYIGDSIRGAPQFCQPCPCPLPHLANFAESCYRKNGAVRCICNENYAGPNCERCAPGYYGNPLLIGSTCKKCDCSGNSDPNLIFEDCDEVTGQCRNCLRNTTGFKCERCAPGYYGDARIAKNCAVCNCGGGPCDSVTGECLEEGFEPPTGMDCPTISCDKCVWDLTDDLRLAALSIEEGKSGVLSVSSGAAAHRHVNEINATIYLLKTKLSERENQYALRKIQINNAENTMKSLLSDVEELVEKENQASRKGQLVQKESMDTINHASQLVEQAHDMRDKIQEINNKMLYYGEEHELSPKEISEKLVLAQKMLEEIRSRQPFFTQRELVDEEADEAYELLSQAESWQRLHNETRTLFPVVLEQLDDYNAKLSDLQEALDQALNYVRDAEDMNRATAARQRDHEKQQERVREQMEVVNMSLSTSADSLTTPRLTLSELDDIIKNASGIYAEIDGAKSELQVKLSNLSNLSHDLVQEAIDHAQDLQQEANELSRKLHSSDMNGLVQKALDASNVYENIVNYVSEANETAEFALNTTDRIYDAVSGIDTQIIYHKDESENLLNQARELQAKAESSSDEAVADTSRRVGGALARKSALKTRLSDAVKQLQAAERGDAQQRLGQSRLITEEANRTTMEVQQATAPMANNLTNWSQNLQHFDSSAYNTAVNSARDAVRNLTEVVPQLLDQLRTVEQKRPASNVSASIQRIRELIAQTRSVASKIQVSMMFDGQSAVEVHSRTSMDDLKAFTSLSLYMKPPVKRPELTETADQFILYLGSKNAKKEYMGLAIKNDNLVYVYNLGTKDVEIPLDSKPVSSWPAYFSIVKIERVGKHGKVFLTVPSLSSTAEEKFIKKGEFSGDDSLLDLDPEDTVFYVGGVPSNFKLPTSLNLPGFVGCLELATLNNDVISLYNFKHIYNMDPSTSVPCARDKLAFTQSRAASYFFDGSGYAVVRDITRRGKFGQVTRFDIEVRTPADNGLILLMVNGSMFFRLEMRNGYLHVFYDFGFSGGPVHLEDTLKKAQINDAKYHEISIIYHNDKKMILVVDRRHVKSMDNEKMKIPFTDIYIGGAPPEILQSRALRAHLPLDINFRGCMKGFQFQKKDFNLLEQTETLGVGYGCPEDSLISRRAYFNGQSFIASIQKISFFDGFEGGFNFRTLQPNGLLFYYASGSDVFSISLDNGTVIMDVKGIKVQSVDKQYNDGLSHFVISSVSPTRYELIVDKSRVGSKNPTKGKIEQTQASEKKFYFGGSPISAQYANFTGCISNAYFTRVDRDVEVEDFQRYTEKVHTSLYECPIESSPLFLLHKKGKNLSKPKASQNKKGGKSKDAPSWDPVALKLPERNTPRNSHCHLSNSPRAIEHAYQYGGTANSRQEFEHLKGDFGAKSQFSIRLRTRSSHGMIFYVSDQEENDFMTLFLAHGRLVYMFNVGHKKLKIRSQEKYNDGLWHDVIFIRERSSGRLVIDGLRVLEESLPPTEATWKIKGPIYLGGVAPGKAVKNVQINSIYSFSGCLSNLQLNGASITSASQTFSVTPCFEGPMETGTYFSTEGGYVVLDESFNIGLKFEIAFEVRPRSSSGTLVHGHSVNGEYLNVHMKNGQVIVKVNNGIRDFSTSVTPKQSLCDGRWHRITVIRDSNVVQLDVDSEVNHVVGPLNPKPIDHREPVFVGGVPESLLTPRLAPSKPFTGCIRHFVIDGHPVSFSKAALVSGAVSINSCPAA
UniProt Q16363, sequence (P07942 22-1786, chain 2 of 3, further chain): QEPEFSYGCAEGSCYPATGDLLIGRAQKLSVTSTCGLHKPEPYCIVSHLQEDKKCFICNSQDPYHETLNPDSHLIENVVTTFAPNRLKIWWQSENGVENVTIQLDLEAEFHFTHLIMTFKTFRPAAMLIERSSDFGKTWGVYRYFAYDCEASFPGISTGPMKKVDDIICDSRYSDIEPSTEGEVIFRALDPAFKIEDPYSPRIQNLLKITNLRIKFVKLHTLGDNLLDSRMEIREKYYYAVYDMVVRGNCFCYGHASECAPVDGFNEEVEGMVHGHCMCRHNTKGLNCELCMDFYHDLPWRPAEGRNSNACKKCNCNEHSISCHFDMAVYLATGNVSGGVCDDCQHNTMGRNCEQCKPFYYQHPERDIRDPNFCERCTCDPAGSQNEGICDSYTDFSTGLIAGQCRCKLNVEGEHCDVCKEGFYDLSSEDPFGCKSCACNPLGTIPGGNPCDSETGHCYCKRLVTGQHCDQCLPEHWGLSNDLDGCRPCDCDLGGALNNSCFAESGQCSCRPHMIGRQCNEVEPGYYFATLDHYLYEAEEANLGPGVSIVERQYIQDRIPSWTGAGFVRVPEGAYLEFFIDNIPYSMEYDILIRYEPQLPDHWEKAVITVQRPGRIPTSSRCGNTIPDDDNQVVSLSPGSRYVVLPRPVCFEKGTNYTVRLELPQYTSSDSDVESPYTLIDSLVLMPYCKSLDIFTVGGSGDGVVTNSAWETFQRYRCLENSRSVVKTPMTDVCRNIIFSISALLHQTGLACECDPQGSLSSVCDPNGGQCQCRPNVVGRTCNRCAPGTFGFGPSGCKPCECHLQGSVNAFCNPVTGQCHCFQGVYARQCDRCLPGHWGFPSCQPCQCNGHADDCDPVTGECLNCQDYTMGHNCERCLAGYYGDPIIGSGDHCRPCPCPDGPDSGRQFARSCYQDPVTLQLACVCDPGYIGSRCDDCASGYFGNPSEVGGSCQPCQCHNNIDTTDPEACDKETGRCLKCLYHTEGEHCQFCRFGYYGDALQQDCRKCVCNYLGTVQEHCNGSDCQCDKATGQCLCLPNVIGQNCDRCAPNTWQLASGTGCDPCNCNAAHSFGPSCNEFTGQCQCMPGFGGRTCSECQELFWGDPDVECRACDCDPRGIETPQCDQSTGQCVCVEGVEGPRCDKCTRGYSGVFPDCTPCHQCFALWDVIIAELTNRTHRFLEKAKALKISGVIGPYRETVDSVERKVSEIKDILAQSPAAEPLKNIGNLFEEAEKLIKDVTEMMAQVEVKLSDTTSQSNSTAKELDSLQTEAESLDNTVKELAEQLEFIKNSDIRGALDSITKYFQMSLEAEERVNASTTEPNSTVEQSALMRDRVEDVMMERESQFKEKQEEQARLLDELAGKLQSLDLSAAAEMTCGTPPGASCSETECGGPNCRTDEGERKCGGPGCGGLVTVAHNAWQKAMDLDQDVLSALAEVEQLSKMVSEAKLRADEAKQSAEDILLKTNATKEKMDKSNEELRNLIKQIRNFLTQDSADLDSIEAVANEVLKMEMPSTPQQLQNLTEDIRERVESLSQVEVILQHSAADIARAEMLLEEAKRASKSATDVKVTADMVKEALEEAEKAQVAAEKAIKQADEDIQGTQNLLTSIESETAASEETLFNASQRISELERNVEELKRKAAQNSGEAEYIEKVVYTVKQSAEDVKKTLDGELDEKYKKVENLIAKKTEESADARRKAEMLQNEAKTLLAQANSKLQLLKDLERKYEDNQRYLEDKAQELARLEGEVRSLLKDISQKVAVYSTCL
UniProt Q16363, sequence (P11047 34-1609, chain 3 of 3, further chain): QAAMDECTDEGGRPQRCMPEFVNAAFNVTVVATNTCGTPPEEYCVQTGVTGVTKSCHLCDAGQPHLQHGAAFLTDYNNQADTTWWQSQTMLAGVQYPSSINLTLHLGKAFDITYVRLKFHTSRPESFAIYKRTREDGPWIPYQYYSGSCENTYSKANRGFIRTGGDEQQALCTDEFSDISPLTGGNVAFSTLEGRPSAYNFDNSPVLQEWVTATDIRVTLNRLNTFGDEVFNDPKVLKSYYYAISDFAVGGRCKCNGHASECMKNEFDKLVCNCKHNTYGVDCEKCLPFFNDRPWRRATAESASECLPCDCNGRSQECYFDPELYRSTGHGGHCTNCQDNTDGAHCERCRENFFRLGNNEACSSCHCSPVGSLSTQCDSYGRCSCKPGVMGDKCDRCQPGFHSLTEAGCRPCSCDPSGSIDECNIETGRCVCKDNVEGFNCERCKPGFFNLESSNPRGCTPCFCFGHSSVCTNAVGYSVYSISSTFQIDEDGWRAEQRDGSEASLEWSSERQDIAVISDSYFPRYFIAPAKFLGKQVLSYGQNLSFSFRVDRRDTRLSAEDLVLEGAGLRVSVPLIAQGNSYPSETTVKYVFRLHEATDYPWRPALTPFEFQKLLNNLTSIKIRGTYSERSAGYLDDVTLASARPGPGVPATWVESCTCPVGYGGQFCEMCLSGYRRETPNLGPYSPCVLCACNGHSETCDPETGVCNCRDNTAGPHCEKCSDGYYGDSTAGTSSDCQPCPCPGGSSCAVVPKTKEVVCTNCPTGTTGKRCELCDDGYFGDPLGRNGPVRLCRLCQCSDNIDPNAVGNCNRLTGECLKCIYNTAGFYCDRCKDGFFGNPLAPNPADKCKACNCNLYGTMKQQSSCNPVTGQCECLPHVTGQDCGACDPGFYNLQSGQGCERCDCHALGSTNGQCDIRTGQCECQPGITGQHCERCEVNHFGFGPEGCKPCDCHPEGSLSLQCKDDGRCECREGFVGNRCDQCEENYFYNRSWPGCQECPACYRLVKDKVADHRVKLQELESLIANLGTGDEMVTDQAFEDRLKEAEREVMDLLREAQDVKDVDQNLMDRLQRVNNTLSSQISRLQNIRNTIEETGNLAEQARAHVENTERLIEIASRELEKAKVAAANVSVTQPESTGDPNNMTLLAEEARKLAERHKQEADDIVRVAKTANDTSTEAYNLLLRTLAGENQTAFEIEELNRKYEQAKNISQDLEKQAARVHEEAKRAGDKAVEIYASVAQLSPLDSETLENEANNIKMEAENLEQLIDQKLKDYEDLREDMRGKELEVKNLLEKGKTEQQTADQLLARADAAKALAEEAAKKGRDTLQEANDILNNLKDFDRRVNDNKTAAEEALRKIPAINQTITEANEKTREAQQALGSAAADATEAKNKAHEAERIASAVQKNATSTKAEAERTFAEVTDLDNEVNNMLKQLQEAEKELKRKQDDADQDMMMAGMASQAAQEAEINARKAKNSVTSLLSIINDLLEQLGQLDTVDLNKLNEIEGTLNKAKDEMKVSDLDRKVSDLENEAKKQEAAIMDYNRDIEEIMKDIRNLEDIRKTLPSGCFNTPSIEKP

Kd: 27 nM
Substance: CD146-Fc (from UniProt P43121)
